The RNAGym collection of RNA variant scans (doi:10.7554/elife.90254)

B1: OR4K15 (parent)
chain: GUUAACGGUCAUAGGCCAUGGAAACUAGGAGCACCAUUUCGCUGCCAGUGAAGAAAUGAACAAAGAAAAUCUGGGCCAGGCAGGCAUCAAAAGAAAUAGUCUUGCGCUCAACCAGAAAGUCUGUAAUCAUUUUAAGGGUA

Variants of: B1
Assay: self-cleavage, relative activity (ratio to wild type); higher = more cleavage; in vitro, sequencing; the parent is a self-cleaving ribozyme

Row | Variant | self-cleavage
1 | GUUAACGGUCAUAGGCCAUGGAAACUAGGAGCACCAUUUCGCUGCCAGUGAUGAAAUGAACAAAGAGAAUCUGGGCCAGGCAGGCAUCAAAAGAAAUAGUCUUGCGCUCAACCAGAAAGUCUGUAAUCAUUUUAAGGGUA [A52U A67G] | 0.87
2 | GUUAACGGUCAUAGGCCAUGGAAACUAGGAGCACCAUUUCGCUGCCAGUGAAGAAAUGAACAAAGAAAAUCUGGGCCAGGCAGGCAUCAAAGGAAAUAGUCUUGCGCUCAACCAGAAAGUCUGUUAUCAUUUUAAGGGUA [A92G A125U] | 1.59
3 | GUUAACGGUCAUAGGCCAUGGAAACUAGGAGCACCAUCUCGCUGCCAGUGAAGAAAUGAACAAAGAAAAUCUGAGCCAGGCAGGCAUCAAAAGAAAUAGUCUUGCGCUCAACCAGAAAGUCUGUAAUCAUUUUAAGGGUA [U38C G74A] | 0.33
4 | GUUAACGGUCAUAGGCCAUGGAAACUAGGGGCACCAGUUCGCUGCCAGUGAAGAAAUGAACAAAGAAAAUCUGGGCCAGGCAGGCAUCAAAAGAAAUAGUCUUGCGCUCAACCAGAAAGUCUGUAAUCAUUUUAAGGGUA [A30G U37G] | 1.08
5 | GUUAACGGUCAUAGGCCAUGGAAACUAGGAGCACCAUUUCGCUGCCAGUGAAGAAAUGAACAAAGAAAAUCUGGGCCAGGCAGGCAUCAAAAGAAAAAGUCUUGCGCUCAACCAGAAAGUCUGUAAUCAUUUUAGGGGUA [U97A A135G] | 1.79
6 | GUUAACGGUCAUAGGCCAUGGAAACUAGGAGCACCAUUUCGCUGCCAGUGAAGAAAUGAACAAAGAAAAUCUAGGCCAGGCAGGCAUCAAAAGAAAUAGUCUUGCGCUCAACCAGAAAGUCAGUAAUCAUUUUAAGGGUA [G73A U122A] | 0.15
7 | GUUAACGGUCAUAGGCCAUGGAAACUAGGAGCACCAUUUCGCUGCCAGUGAAGAAAUGAACUAAGAAAAUCUGGGCCAGGCAAGCAUCAAAAGAAAUAGUCUUGCGCUCAACCAGAAAGUCUGUAAUCAUUUUAAGGGUA [A62U G83A] | 1.98
8 | GUUAACGGUCAUAGGCCAUGGAAACUAGGAGCACCAUUUCGCUGCCAGUGAAGAAAUGAACAAAGAAAAUCUGGGCCUGGCAGGCAUCAAAAGAAAUAGACUUGCGCUCAACCAGAAAGUCUGUAAUCAUUUUAAGGGUA [A78U U100A] | 0.07
9 | GUUAACGGCCAUAGGCCAUGGAAACUAGGAGCACCAUUUCGCUGCCAGUGAAGAAAUGAACAAAGAAAAUCUGGGCCAGGCAGGCAUCAAAAGAAAUUGUCUUGCGCUCAACCAGAAAGUCUGUAAUCAUUUUAAGGGUA [U9C A98U] | 1.32
10 | GUUAACGGUCAUAGGCCAUGGAAACUAGGAGCACCAUUUCGCUGCCAGUGAAGAAAUUAACAAAGAAAAUCUGGGCCAGGCAGGCAUCAAAAGAAAUAGUCUUGCGAUCAACCAGAAAGUCUGUAAUCAUUUUAAGGGUA [G58U C107A] | 0.03
11 | GUUAACGGUCAUAGGCCAUGGAAGCUAGGAGCACCAUUUCGCUGCCAGUGAAGAAAUGAACAAAGAAAAUCUGGGCCAGGCAGGCAUCAAAAGAAAUAGUCUUGAGCUCAACCAGAAAGUCUGUAAUCAUUUUAAGGGUA [A24G C105A] | 0.02
12 | GUUAACGGUCAUAGGCCAUGGAAACUAGGAGCACCAUUUCGCUGCCAGUGAAGAAAUGAACAAAGAAAAUCUGGGCCAGGCAGGCAUCAAAAGAAAUAGUCUUGCGCUCAGCCAGAAAGUCCGUAAUCAUUUUAAGGGUA [A111G U122C] | 0.01
13 | GUUAACGGUCAUAGGCCAUGGAAACUAGGAGCACCAUUUCGCUGCCAGUGAAGAAAUGAACAAAGAAAAUCUGGGCCAGGCAGGCAUCAUAAGAAAUAGUCUUGCACUCAACCAGAAAGUCUGUAAUCAUUUUAAGGGUA [A90U G106A] | 0
14 | GUUAACGGUCAUAGGCCAUGGAAACUAGGAGCACCAUUGCGCUGCCAGUGAAGAAAUGAACAAAGAAAAUCUGGGCCAGGCAGGCAUCAAAAGAAAUAGUCUUGCGCUCAACCAGAAAGUCUGUAAUCAUUUUAAGGGUA [U39G] | 0.79
15 | GUUAACGGUCAUAGGCCAUGGAAACUAGGUGCACCAUUUCGCUGCCAGUGAAGAGAUGAACAAAGAAAAUCUGGGCCAGGCAGGCAUCAAAAGAAAUAGUCUUGCGCUCAACCAGAAAGUCUGUAAUCAUUUUAAGGGUA [A30U A55G] | 1.55
16 | GUUAACGGUCAUAGGUCAUGGAAACUAGGAGCACCAUUUCGCUGCCAGUGAAGAAAUGAACAAAGAAAAUCUGGGCCAGACAGGCAUCAAAAGAAAUAGUCUUGCGCUCAACCAGAAAGUCUGUAAUCAUUUUAAGGGUA [C16U G80A] | 0.1
17 | GUUAACGGUCAUAGGCCAUGGAAACUAGGAGCACCAUUUCGCUGCCAGUGAAGAAAUGAACAAAGAAAAUCUGGGCCAGGCAGGCAUCAAAAGAAAUAGUCUUGCGCUCAUCCAGAAAGUCUGUAAUCAUUUUAAGGGAA [A111U U139A] | 0.16
18 | GUUAACGGUCAUAGGCCAUGGAAACUAGGAGCACCAUUUCGCUGCCAGUGAAGAAAUGAACAAAGAAAAUCCGGGCCAGGCAGGCAUCAAAAGAAAUAGUCUUGCGCUCAACCAGAAAGUCUGUAAUCAUUUCAAGGGUA [U72C U133C] | 0.13
19 | GUUAACGGUCAUAGGCCAUGGAAACUAGGAGCUCCAUUUCGCUGCCAGUGAAGAAAUGAACAAAGUAAAUCUGGGCCAGGCAGGCAUCAAAAGAAAUAGUCUUGCGCUCAACCAGAAAGUCUGUAAUCAUUUUAAGGGUA [A33U A66U] | 1.62
20 | GUUAACGGUCAUAGGCCAUGGAAACUAGGAGCACCAUUUCGCUGCCAGUGAAGAAAUGAACAAAGAAAAUCUGGGCCAGGCAGGCCUCAAAAGAAAUAGUCCUGCGCUCAACCAGAAAGUCUGUAAUCAUUUUAAGGGUA [A86C U102C] | 1.29
21 | GUUAACGGUCAUAGGCCAUGGAAACUAGGAGCACCAUUUCGCUGCCAGUGAGGAAAUGAACAAAGAAAAUCUGGGCCAGGCAGGCCUCAAAAGAAAUAGUCUUGCGCUCAACCAGAAAGUCUGUAAUCAUUUUAAGGGUA [A52G A86C] | 0.77

Row | Variant | self-cleavage
22 | GUUAACGGUCAUAGGCCAUGGAAACUAGGAGCACCAUUUCGCUGCCAGUGAAGAAAUGGACAAAGAAAAUCUGGGCCAGGCAGGCAUCAAAAGAAAUAGUCUUGCGCUCAACCAGAAAGUCUGUAAUCAUUUAAAGGGUA [A59G U133A] | 1.28
23 | GUUAACGGUCAUAGGCCAUGGAAACUAGGAGCACCAUUUCGCUGCCAGUGAAGAAAUGAACAAAGAAAAUCUGGGCCAGGCAGGCAUCAAAAGAAAUAGUCUUGCGCUCAACCAGAAAGUCUGCAAUCAGUUUAAGGGUA [U124C U130G] | 0.87
24 | GUUAACGGUCAUAGGCCAUGGAAACUAGGAGCACCAUUUCGCUGCCAGUGAAGAAAUGAACAAAGAAAAUCCGGGCCAGGCAGGCAUCAAAAGAAAUUGUCUUGCGCUCAACCAGAAAGUCUGUAAUCAUUUUAAGGGUA [U72C A98U] | 0.3
25 | GUUAACGGUCAUAGGCCAUGGAAACUAGGAGCACCAUUUCGCUGCCAGUGAAGAAAUGAACAAAGAAAAUCUGGGCCAGGCAGGCAUCAAAAGAAAUAGUCUUGCGCUCAACCAGAAAGUCUGUAAUCAUCCUAAGGGUA [U131C U132C] | 1.1
26 | GUUAACGGUCAUAGGCCAUGGAAACUAGGAGCACCAUUUCGCUGCCAGUGAAGAAAGGAACAAAGAAAAUCUGGGCCAGGCAGGCAUCAAAAGAAAUAGUCUUGCGCUCAACCAGAAAGUCUGUAAUCACUUUAAGGGUA [U57G U130C] | 0.44
27 | GUUAACGGUCAUAGGGCAUGGAAACUAGGAGCACCAUUUCGCUGCCAGUGAAGAAAUGAACAAAGAAAAUCUGGGCCAGGCAAGCAUCAAAAGAAAUAGUCUUGCGCUCAACCAGAAAGUCUGUAAUCAUUUUAAGGGUA [C16G G83A] | 1.21
28 | GUUAACGGUCAUAGGCCAAGGAAACCAGGAGCACCAUUUCGCUGCCAGUGAAGAAAUGAACAAAGAAAAUCUGGGCCAGGCAGGCAUCAAAAGAAAUAGUCUUGCGCUCAACCAGAAAGUCUGUAAUCAUUUUAAGGGUA [U19A U26C] | 2.12
29 | GUUAACGGUCAUAGGCCAUGGAUACUAGGAGCUCCAUUUCGCUGCCAGUGAAGAAAUGAACAAAGAAAAUCUGGGCCAGGCAGGCAUCAAAAGAAAUAGUCUUGCGCUCAACCAGAAAGUCUGUAAUCAUUUUAAGGGUA [A23U A33U] | 1.17
30 | GUUAACGGUCAUAGGCCAUGGAAACUAGGAGCACCAUUUCGCCGCCAGUGAAGAAAUGAACAAAGAAAAUCUGGGCCAGGCAGGCAUCAAAAGAAAUAGUCUUGCGCCCAACCAGAAAGUCUGUAAUCAUUUUAAGGGUA [U43C U108C] | 0.02
31 | GUUAACGGUCAUAGGCCAUGGAAACUAGGAGCACCAUUUCGCUGCCAGUGAAGAAAUGAACAAUGAAAAUCUGGGCCAGGCAGGCAUCAAAAGAAAUAGCCUUGCGCUCAACCAGAAAGUCUGUAAUCAUUUUAAGGGUA [A64U U100C] | 2.38
32 | GUUAACGGUCAUAGGCCAUGGAAACUAGGAGCACCAUUUCGCUGCCAGUGAAGAAAUGAACAAAGUAAAUCUGGGCCAGGCAGGCAUCAAAAGAAAUAGUCUUGCGCUCAACCAGAAAGUCUGUAAUCAUCUUAAGGGUA [A66U U131C] | 0.84
33 | GUUAACGGUCAUAGGCCAUGAAAACUAGGAGCACCAUUUCGCUGCCAGUGAAGAAAUGAACAAAGAAAAUCUGGGCCAGGCAGGCAUCAAAAGAGAUAGUCUUGCGCUCAACCAGAAAGUCUGUAAUCAUUUUAAGGGUA [G21A A95G] | 2.07
34 | GUUAACGGUCAUAGGCCAUGGAAACUAGGAGCACCAUUUCGCUGCCAGUGAAGAAAUGAACAACGAAGAUCUGGGCCAGGCAGGCAUCAAAAGAAAUAGUCUUGCGCUCAACCAGAAAGUCUGUAAUCAUUUUAAGGGUA [A64C A68G] | 1.44
35 | GUUAACGGUCAUAGGCCAUGGAAACUAGGAGCACCAUUUCGCUGCCAGUGAAGAAAUGAGCAAGGAAAAUCUGGGCCAGGCAGGCAUCAAAAGAAAUAGUCUUGCGCUCAACCAGAAAGUCUGUAAUCAUUUUAAGGGUA [A60G A64G] | 1.24
36 | GUUAACGGUCAUAGGCCCUGGAAACUAGGAGCACCAUUUCGCUGCCAGUGAAGAAAUGAACGAAGAAAAUCUGGGCCAGGCAGGCAUCAAAAGAAAUAGUCUUGCGCUCAACCAGAAAGUCUGUAAUCAUUUUAAGGGUA [A18C A62G] | 1.36
37 | GUUAACGGUCAUAGGCCAUGGAAACUAGGAGCACCAUUUCGCUGCCAGUGAAGAAAUGAACAAAGAAAAUCUGGGCCAGGCAGGCAUCAACAGAAAUAGUCUUGCGCUCAACCAGAAAGUCUGCAAUCAUUUUAAGGGUA [A91C U124C] | 1.67
38 | GUUAACGGUCAUAGGCCAUGGAAACUAGGAGCACCAUUUCGCUGCCAGUGAAGAAAUGAACAAAGAAAAUCUGGGCCAGGCAGGCAUCAAAAGAAAUAGUCUUGCGCUCAACCAGAAAGUCUGUAAUCGUUUUAAGCGUA [A129G G137C] | 1.54
39 | GUUAACGGUCAUAGGCCAUGGAAGCUAGGAGCACCAUUUCGCUGCCAGUGAAGAAAUGAACAAAGAAAAUCUGGGCCAGGCAGGCCUCAAAAGAAAUAGUCUUGCGCUCAACCAGAAAGUCUGUAAUCAUUUUAAGGGUA [A24G A86C] | 0.43
40 | GUUAACGGUCAUAGGCCAUGGAAACUAGGAGCACCAUUUCGCUGCUAGUGAAGAAAUGGACAAAGAAAAUCUGGGCCAGGCAGGCAUCAAAAGAAAUAGUCUUGCGCUCAACCAGAAAGUCUGUAAUCAUUUUAAGGGUA [C46U A59G] | 1.81
41 | GUUAACGGUCAUAGGCCAUGGAAACUAGGAGCACCAUCUCGCUGCCAGUGAAGAAAUGAACAAAGAAAAUCCGGGCCAGGCAGGCAUCAAAAGAAAUAGUCUUGCGCUCAACCAGAAAGUCUGUAAUCAUUUUAAGGGUA [U38C U72C] | 0.27
